Values of other authors as cited in PMC3946517.

Key:
[1] = target: preMADH (Paracoccus denitrificans) (UniProt P22619); assay: stopped-flow kinetics
[2] = target: quinol MADH (Paracoccus denitrificans) (UniProt P22619); assay: stopped-flow kinetics

## MauG (from UniProt Q51658)
[1]
  Kd: < 1.5 µM
[2]
  Kd: 11.2 µM
